Tests used:
[1] = biological target: T1, GTP cyclohydrolase IB (GCYH-IB) (Neisseria gonorrhoeae, UniProt Q5F9K6); test: competitive inhibition kinetics, fluorescence assay of neopterin; assay type: biochemical
T1 sequence (Q5F9K6 1-257): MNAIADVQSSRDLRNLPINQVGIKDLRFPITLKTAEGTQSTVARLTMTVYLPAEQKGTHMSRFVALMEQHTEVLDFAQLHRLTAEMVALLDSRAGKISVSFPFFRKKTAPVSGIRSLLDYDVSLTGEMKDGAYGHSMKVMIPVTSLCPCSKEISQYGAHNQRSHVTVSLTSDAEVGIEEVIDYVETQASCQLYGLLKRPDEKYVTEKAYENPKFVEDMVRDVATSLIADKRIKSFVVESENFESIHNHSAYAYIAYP

[2] = biological target: GTP cyclohydrolase IB (GCYH-IB) (Neisseria gonorrhoeae, UniProt Q5F9K6); test: X-ray crystal structure at […] Å; assay type: biochemical
[3] = biological target: Neisseria gonorrhoeae GCYH-IB Cys149Ala mutant (Neisseria gonorrhoeae) (UniProt Q5F9K6); test: SEC
[4] = biological target: Neisseria gonorrhoeae GCYH-IB Cys149Ser mutant (Neisseria gonorrhoeae) (UniProt Q5F9K6); test: SEC
[5] = biological target: Neisseria gonorrhoeae GCYH-IB Glu152Ala mutant (Neisseria gonorrhoeae) (UniProt Q5F9K6); test: SEC
[6] = biological target: Neisseria gonorrhoeae GCYH-IB Glu243Ala mutant (Neisseria gonorrhoeae) (UniProt Q5F9K6); test: SEC
[7] = biological target: Neisseria gonorrhoeae GCYH-IB His246Ala mutant (Neisseria gonorrhoeae) (UniProt Q5F9K6); test: SEC
[8] = biological target: Neisseria gonorrhoeae GCYH-IB His246Asn mutant (Neisseria gonorrhoeae) (UniProt Q5F9K6); test: SEC
[9] = biological target: Neisseria gonorrhoeae GCYH-IB His246Asp mutant (Neisseria gonorrhoeae) (UniProt Q5F9K6); test: SEC
[10] = biological target: Neisseria gonorrhoeae GCYH-IB His246Gln mutant (Neisseria gonorrhoeae) (UniProt Q5F9K6); test: SEC
[11] = biological target: Neisseria gonorrhoeae GCYH-IB His246Lys mutant (Neisseria gonorrhoeae) (UniProt Q5F9K6); test: SEC
steady-state kinetics = substrate: Nc1nc2c(ncn2[C@@H]2O[C@H](COP(=O)(O)OP(=O)(O)OP(=O)(O)O)[C@@H](O)[C@H]2O)c(=O)[nH]1; test: steady-state kinetics; assay type: biochemical, Neisseria gonorrhoeae; conditions: Mn2+ active site
crystal structure = biological target: the molecule itself; test: crystal structure

Molecule: Nc1nc2c(ncn2[C@H]2C[C@H](O)[C@@H](COP(=O)(O)OP(=O)(O)OP(=O)(O)O)O2)c(=O)[nH]1 [2′-deoxyGTP]
- Ki [1]: 164 µM

Molecule: Nc1nc2c(ccn2[C@@H]2O[C@H](COP(=O)(O)OP(=O)(O)OP(=O)(O)O)[C@@H](O)[C@H]2O)c(=O)[nH]1 [7-deaza-GTP]
- Ki [1]: 45.7 µM

Molecule: Nc1nc2c([nH]c(=O)n2[C@@H]2O[C@H](CO[P@@](=O)(O)O[P@@](=O)(O)OP(=O)(O)O)[C@@H](O)[C@H]2O)c(=O)[nH]1 [8-oxo-GTP]
- Ki [2]: 0.149 µM

Molecule: Neisseria gonorrhoeae GCYH-IB Cys149Ala mutant (from UniProt Q5F9K6 1-257) (enzyme)
- stoichiometry N [3]: 4

Molecule: Neisseria gonorrhoeae GCYH-IB Cys149Ser mutant (from UniProt Q5F9K6 1-257) (enzyme)
- stoichiometry N [4]: 4

Molecule: Neisseria gonorrhoeae GCYH-IB Glu152Ala mutant (from UniProt Q5F9K6 1-257) (enzyme)
- stoichiometry N [5]: 4

Molecule: Neisseria gonorrhoeae GCYH-IB Glu243Ala mutant (from UniProt Q5F9K6 1-257) (enzyme)
- stoichiometry N [6]: 4

Molecule: Neisseria gonorrhoeae GCYH-IB His246Ala mutant (from UniProt Q5F9K6 1-257) (enzyme)
- stoichiometry N [7]: 4

Molecule: Neisseria gonorrhoeae GCYH-IB His246Asn mutant (from UniProt Q5F9K6 1-257) (enzyme)
- stoichiometry N [8]: 4

Molecule: Neisseria gonorrhoeae GCYH-IB His246Asp mutant (from UniProt Q5F9K6 1-257) (enzyme)
- stoichiometry N [9]: 4

Molecule: Neisseria gonorrhoeae GCYH-IB His246Gln mutant (from UniProt Q5F9K6 1-257) (enzyme)
- stoichiometry N [10]: 4

Molecule: Neisseria gonorrhoeae GCYH-IB His246Lys mutant (from UniProt Q5F9K6 1-257) (enzyme)
- stoichiometry N [11]: 4

B1: GTP cyclohydrolase IB (GCYH-IB) (Neisseria gonorrhoeae FA 1090) (protein)
chain: T1 sequence (Q5F9K6 1-257)
- Km (steady-state kinetics): 9.15 µM

B2: Neisseria gonorrhoeae GTP cyclohydrolase IB, wild type (enzyme)
chain: T1 sequence (Q5F9K6 1-257)
modifications: S-nitrosylated Cys149 (as purified from E. coli)
- stoichiometry N (crystal structure): 4

— PMC5558430 (The Biochemical journal, 2017)
